Reference: paper PMC2777755
Where two headings read alike, the source gives them in different places.

Columns and labels:
[1] = target: Ste5 minimal scaffold domain (Ste5-ms), fluorescein-labeled (S. cerevisiae) (UniProt P32917); assay: fluorescence polarisation
[2] = target: Fus3 (Saccharomyces cerevisiae) (UniProt P16892); details: cited from earlier work
[3] = target: Kss1 (Saccharomyces cerevisiae) (UniProt P14681); details: cited from earlier work
[4] = target: Fus3 (Saccharomyces cerevisiae) (UniProt P16892); details: cited from earlier work; remark: listed apart in the source

UniProt P16892, sequence (P16892 whole entry): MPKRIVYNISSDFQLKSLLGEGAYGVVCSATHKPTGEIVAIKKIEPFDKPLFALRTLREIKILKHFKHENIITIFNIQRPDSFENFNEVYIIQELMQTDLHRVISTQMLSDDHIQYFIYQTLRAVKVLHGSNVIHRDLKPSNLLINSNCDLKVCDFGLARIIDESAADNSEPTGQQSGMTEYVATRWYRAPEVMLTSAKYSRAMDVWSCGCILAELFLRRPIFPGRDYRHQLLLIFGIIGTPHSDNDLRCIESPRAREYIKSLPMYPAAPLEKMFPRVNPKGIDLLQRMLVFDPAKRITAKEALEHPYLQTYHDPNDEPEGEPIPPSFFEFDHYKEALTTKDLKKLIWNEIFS
UniProt P14681, sequence (P14681 whole entry): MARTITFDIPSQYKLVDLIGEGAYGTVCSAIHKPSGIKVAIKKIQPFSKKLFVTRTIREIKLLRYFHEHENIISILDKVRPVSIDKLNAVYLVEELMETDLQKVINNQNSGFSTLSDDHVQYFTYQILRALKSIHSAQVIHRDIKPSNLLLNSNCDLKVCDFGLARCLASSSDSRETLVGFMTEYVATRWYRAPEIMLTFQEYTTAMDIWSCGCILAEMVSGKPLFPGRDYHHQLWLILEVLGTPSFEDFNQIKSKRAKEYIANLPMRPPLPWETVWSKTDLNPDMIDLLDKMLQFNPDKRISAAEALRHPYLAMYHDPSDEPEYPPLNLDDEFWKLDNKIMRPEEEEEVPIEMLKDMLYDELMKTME

Substance “MAPKK Ste7 (from UniProt P06784 1-515) (enzyme)” has a Kd [1] of 75 nM.

For Ste5 288-316 (from UniProt P32917), the Kd [2] is given as 1000 nM.

In the case of “Ste7 docking motif (from UniProt P06784)”, the Kd [3] is listed as 100 nM and the Kd [4] is listed as 100 nM.
